# ± gives the standard error.
# B1: library; numbered along this chain (parent)
# chain: MATDAALRRLLRLHRTEIAVAVDSAFPLLHALADHDVVPEDKFQETLHLKEKEGCPQAFHALLSWLLTQDSTAILDFWRVLFKDYNLERYGRLQPILDSFPKDVDLSQPRKGRKPPAVPKALVPPPRLPTKRKASEEARAAAPAALTPRGTASPGSQLKAKPPKKPESSAEQQRLPLGNGIQTMSASVQRAVAMSSGDVPGARGAVEGILIQQVFESGGSKKCIQVGGEFYTPSKFEDSGSGKNKARSSSGPKPLVRAKGAQGAAPGGGEARLGQQGSVPAPLALPSDPQLHQKNEDECAVCRDGGELICCDGCPRAFHLACLSPPLREIPSGTWRCSSCLQATVQEVQPRAEEPRPQEPPVETPLPPGLRSAGEEVRGPPGEPLAGMDTTLVYKHLPAPPSAAPLPGLDSSALHPLLCVGPEGQQNLAPGARCGVCGDGTDVLRCTHCAAAFHWRCHFPAGTSRPGTGLRCRSCSGDVTPAPVEGVLAPSPARLAPGPAKDDTASHEPALHRDDLESLLSEHTFDGILQWAIQSMARPAAPFPS
# Variants of: B1
# Test: AIRE transcriptional activation functional score (insulin promoter-GFP; nonsense median 0, synonymous median 1) (normalised score); higher = higher AIRE activity (more reporter activation)
# Conditions: with insulin promoter-GFP reporter in HEK293
# Summary of the method: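 The functional score compares variant enrichment between select and non-select populations after subtracting wild type. To obtain it, codon-optimized AIRE NNN-codon libraries spanning three regions were placed by Bxb1 recombinase into Flp-In T-REx HEK293 landing-pad cells with an insulin core promoter-GFP reporter. Cells with the top 10% GFP and unselected integrants were tile-sequenced after mCherry+, BFP− integrants had been sorted at day 7 and grown 7 more days. Only variants with 10 counts per million in non-select were kept, rescaled to nonsense median 0 and synonymous median 1, and averaged across biological replicates.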
row,Variant,AIRE transcriptional activation functional score
1,A429F,1.34 ± 0.1
2,A429P,0.614 ± 0.34
3,Q425H,1.3 ± 0.16
4,Q425T,0.973 ± 0.3
5,Q425C,0.714 ± 0.05
6,Q425A,0.368 ± 0.13
7,Q425V,0.734 ± 0.21
8,Q425L,1.18 ± 0.11
9,Q425I,1.07 ± 0.33
10,Q425E,0.587 ± 0.23
11,Q425S,1.06 ± 0.28
12,Q425Y,1.28 ± 0.075
13,Q425G,1.04 ± 0.18
14,Q425K,0.902 ± 0.12
15,Q425M,0.974 ± 0.078
16,Q425W,1.28 ± 0.024
17,Q425D,0.431 ± 0.85
18,Q425F,1.13 ± 0.33
19,Q425R,0.94 ± 0.15
20,Q425P,1.21 ± 0.11
21,Q425N,0.869 ± 0.12
22,P416Q,1.49 ± 0.21
23,P416C,1.46 ± 0.03
24,P416K,0.665 ± 0.13

row,Variant,AIRE transcriptional activation functional score
1,P416F,0.451 ± 0.058
2,P416A,0.819 ± 0.15
3,P416G,0.937 ± 0.33
4,P416L,0.688 ± 0.27
5,P416Y,0.419 ± 0.13
6,P416W,1.5 ± 0.089
7,P416D,-0.251 ± 0.11
8,P416I,0.0784 ± 0.053
9,P416S,1.09 ± 0.21
10,P416T,0.937 ± 0.11
11,P416N,1.21 ± 0.23
12,P416M,1.55 ± 0.057
13,P416R,0.68 ± 0.29
14,P416V,0.526 ± 0.12
15,P416H,-0.0276 ± 0.2
16,A432V,0.872 ± 0.29
17,A432G,1.22 ± 0.11
18,A432Y,1.28 ± 0.27
19,A432D,0.806 ± 0.097
20,A432T,0.81 ± 0.39
21,A432L,0.822 ± 0.4
22,A432Q,0.748 ± 0.18
23,A432R,0.993 ± 0.31
24,A432K,0.599 ± 0.19

row,Variant,AIRE transcriptional activation functional score
1,A432M,0.0975 ± 0.032
2,A432S,0.578 ± 0.26
3,A432I,0.534 ± 0.21
4,A432P,0.463 ± 0.084
5,A432F,1.06 ± 0.25
6,A432W,1.88 ± 0.094
7,A432C,1.2 ± 0.14
8,A432N,-0.334 ± 0.22
9,A432E,1.16 ± 0.18
10,A432H,0.437 ± 0.44
11,R433M,0.755 ± 0.12
12,R433E,1.39 ± 0.07
13,R433S,0.734 ± 0.31
14,R433I,0.308 ± 0.067
15,R433D,0.895 ± 0.059
16,R433L,0.786 ± 0.24
17,R433C,0.922 ± 0.13
18,R433A,0.402 ± 0.44
19,R433G,0.748 ± 0.22
20,R433H,0.569 ± 0.21
21,R433K,1.03 ± 0.12
22,R433N,1.15 ± 0.071
23,R433P,0.565 ± 0.22
24,R433Q,1.13 ± 0.34

row,Variant,AIRE transcriptional activation functional score
1,R433F,0.678 ± 0.41
2,R433T,0.808 ± 0.18
3,G424L,1.08 ± 0.16
4,G424V,1.25 ± 0.1
5,G424M,0.308 ± 0.09
6,G424I,-0.488 ± 0.22
7,G424Q,1.49 ± 0.33
8,G424S,1.19 ± 0.21
9,G424T,1.59 ± 0.12
10,G424A,1.25 ± 0.19
11,G424P,1.24 ± 0.072
12,G424K,1.04 ± 0.3
13,G424C,1.41 ± 0.072
14,G424F,1.64 ± 0.083
15,G424N,0.684 ± 0.058
16,G424D,1 ± 0.11
17,G424E,0.64 ± 0.24
18,G424W,1.26 ± 0.04
19,G424Y,0.738 ± 0.57
20,G424R,1.03 ± 0.21
21,G424H,0.363 ± 0.25
22,Q426P,1.09 ± 0.091
23,Q426G,0.866 ± 0.13
24,Q426R,0.722 ± 0.33

row,Variant,AIRE transcriptional activation functional score
1,Q426F,1.34 ± 0.04
2,Q426Y,1.54 ± 0.11
3,Q426E,1.07 ± 0.094
4,Q426N,1.23 ± 0.043
5,Q426V,1.29 ± 0.083
6,Q426M,1.34 ± 0.16
7,Q426L,1.06 ± 0.23
8,Q426K,1.16 ± 0.051
9,Q426H,1.18 ± 0.14
10,Q426T,1.17 ± 0.094
11,Q426D,0.796 ± 0.2
12,Q426W,1.64 ± 0.042
13,Q426S,0.831 ± 0.54
14,Q426I,0.87 ± 0.067
15,Q426A,-0.467 ± 0.31
16,Q426C,1.4 ± 0.044
17,L417I,0.855 ± 0.24
18,L417K,0.833 ± 0.06
19,L417W,1.3 ± 0.069
20,L417G,0.679 ± 0.13
21,L417S,0.626 ± 0.26
22,L417A,0.892 ± 0.26
23,L417Q,1.07 ± 0.16
24,L417E,0.739 ± 0.049

row,Variant,AIRE transcriptional activation functional score
1,L417P,0.784 ± 0.21
2,L417R,0.707 ± 0.21
3,L417N,1.05 ± 0.17
4,L417F,1.3 ± 0.11
5,L417D,1.12 ± 0.14
6,L417T,0.966 ± 0.21
7,L417V,0.708 ± 0.25
8,L417Y,1.21 ± 0.098
9,L417C,1.24 ± 0.17
10,L417H,0.632 ± 0.12
11,G431D,0.852 ± 0.23
12,G431H,1.39 ± 0.086
13,G431Y,0.576 ± 0.32
14,G431R,0.579 ± 0.19
15,G431N,0.881 ± 0.19
16,G431P,0.983 ± 0.25
17,G431V,1.13 ± 0.14
18,G431K,0.71 ± 0.18
19,G431A,1.23 ± 0.28
20,G431M,0.776 ± 0.13
21,G431I,1.32 ± 0.11
22,G431F,1.14 ± 0.1
23,G431E,0.793 ± 0.22
24,G431S,0.927 ± 0.24

row,Variant,AIRE transcriptional activation functional score
1,G431W,1.29 ± 0.027
2,G431T,1.21 ± 0.16
3,G431L,0.794 ± 0.35
4,G431Q,0.86 ± 0.29
5,G431C,0.854 ± 0.15
6,P430G,1.21 ± 0.26
7,P430F,1.69 ± 0.089
8,P430D,0.951 ± 0.054
9,P430V,0.632 ± 0.38
10,P430L,1.18 ± 0.24
11,P430R,0.778 ± 0.23
12,P430S,0.992 ± 0.36
13,P430W,1.3 ± 0.025
14,P430K,0.999 ± 0.086
15,P430H,1.32 ± 0.061
16,P430T,0.77 ± 0.24
17,P430Q,1.01 ± 0.36
18,P430E,1.01 ± 0.11
19,P430I,1.28 ± 0.3
20,P430N,1.14 ± 0.18
21,P430Y,1.03 ± 0.16
22,P430A,0.806 ± 0.25
23,P430C,0.92 ± 0.36
